The data set deals with NC(=O)C[C@H](N)C(=O)O. As to the kind of experiment: Nessler ammonia assay, OD436; Lineweaver-Burk. It is filed as biochemical, Mycobacterium gordonae. Particulars: 50 mM PBS pH 8.0, 37 °C, 2 min, 1-20 mM substrate.

With “GmASNase (Mycobacterium gordonae L-asparaginase) (Mycobacterium gordonae)”, the Km is given as 6.025 mM and the kcat was 11,864.71 min^-1.

These data come from publication PMC8617759, “Characterization of a Novel L-Asparaginase from Mycobacterium gordonae with Acrylamide Mitigation Potential” (Foods, 2021).
